T1: Puf5p RNA-binding domain (Saccharomyces cerevisiae, UniProt P39016 201-600)
T1 sequence: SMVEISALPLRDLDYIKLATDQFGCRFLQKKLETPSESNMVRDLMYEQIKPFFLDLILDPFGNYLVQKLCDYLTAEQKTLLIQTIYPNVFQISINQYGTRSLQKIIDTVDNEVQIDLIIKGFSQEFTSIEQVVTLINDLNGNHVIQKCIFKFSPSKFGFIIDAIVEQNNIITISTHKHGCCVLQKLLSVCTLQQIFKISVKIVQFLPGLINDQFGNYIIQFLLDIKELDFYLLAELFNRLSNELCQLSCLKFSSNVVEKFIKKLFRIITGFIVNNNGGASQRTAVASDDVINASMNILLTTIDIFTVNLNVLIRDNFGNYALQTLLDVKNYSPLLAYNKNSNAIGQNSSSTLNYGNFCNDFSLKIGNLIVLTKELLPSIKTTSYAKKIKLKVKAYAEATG


Molecular target: T1, Puf5p RNA-binding domain
Test: EMSA; EMSA: 10 mM HEPES pH 7.4, 50 mM NaCl, 1 mM EDTA, 0.1 mg/ml BSA, 0.01% Tween 20, 0.1 mg/ml yeast tRNA, 100 pM RNA, overnight at 4 C

Binder | Kd [nM]
UGUAACUUUUUA (ssRNA) [AMN1 (12)] | 106
UGUAAUGAUUA (ssRNA) [AAT2 (11)] | 345
UGUAUUUGUA (ssRNA) [MFA2 (10)] | 179
UGUACUAUA (ssRNA) [SMX2 (9)] | 28.4
UGUAUAUA (ssRNA) [NRE (8)] | 3200

From paper PMC4570272
